Experimental data from patent US9175313B2, “Three-dimensional structure of isoprene synthase and its use thereof for generating variants” (Danisco US Inc., priority 2009, dated 2015).
Numbering of substitutions follows the chain as printed. Names and notes keep the numbering of the source. “Also recorded” adds a separate entry of the source.

B1: L494P: P. alba IspS variant L494P; pDW101, strain DW399, SEQ ID NO: 69 (protein)
chain: MEARRSANYEPNSWDYDYLLSSDTDESIEVYKDKAKKLEAEVRREINNEKAEFLTLLELIDNVQRLGLGYRFESDIRGALDRFVSSGGFDAVTKTSLHGTALSFRLLRQHGFEVSQEAFSGFKDQNGNFLENLKEDIKAILSLYEASFLALEGENILDEAKVFAISHLKELSEEKIGKELAEQVNHALELPLHRRTQRLEAVWSIEAYRKKEDANQVLLELAILDYNMIQSVYQRDLRETSRWWRRVGLATKLHFARDRLIESFYWAVGVAFEPQYSDCRNSVAKMFSFVTIIDDIYDVYGTLDELELFTDAVERWDVNAINDLPDYMKLCFLALYNTINEIAYDNLKDKGENILPYLTKAWADLCNAFLQEAKWLYNKSTPTFDDYFGNAWKSSSGPLQLVFAYFAVVQNIKKEEIENLQKYHDTISRPSHIFRLCNDLASASAEIARGETANSVSCYMRTKGISEELATESVMNLIDETWKKMNKEKLGGSPFAKPFVETAINLARQSHCTYHNGDAHTSPDELTRKRVLSVITEPILPFERENLYFQGLEHHHHHH
B2: T536F: P. alba IspS variant T536F; pDW87, strain DW363, SEQ ID NO: 95 (protein)
chain: B1 chain with P494L, T536F

Assays:
[1] = DMAPP assay of site evaluation library (SEL) lysates with ELISA protein quantitation: specific activity ranked as performance index; format: biochemical; details: for isoprene synthase activity of variants relative to parent, in words: SEL analysis of P. alba IspS; for performance index: primary SEL screen, activity on DMAPP per unit weight relative to the parental molecule (parent = 1)
Method: 1. Prepared Patch Plates from Glycerol Stock Plates. Using a V&S 96 pin Replication Tool, cultures were patched onto a LB Agar 35 CMP/50 Kan large patch plates from overnight glycerol stock plates. Plates were incubated at 30° C. overnight for 20 to 24 hr. Cultures can be stored at 4° C. for up to a week.
2. Prepared Overnight Growth Plates. 500 mL of LB 35 CMP/50 Kan media were prepared. 300 μL/well of LB 35 CMP/50 Kan media were dispensed into deep 96 well plates (VWR). Using a V&S Replication Tool, the patch inoculum was transferred into deep 96 well plate by touching the tool pins to respective patch and using a circular motion to coat the pins with inoculum. The media was inoculated by dipping the tool then shaking the pin within the well. The overnight growth plates were sealed using a Breathe-Easier Sealing Membrane (Diversified Biotech). The plates were incubated in a Vertiga Shaking Incubator at 30° C. with shaking at 800 rpm overnight for 16 to 18 hr.
3. Prepared Day Growth Plate. Deep 96 well plates were prepared by dispensing 588 μL/well of LB 35 CMP/50 Kan media. Overnight growth plates were removed from the incubator. Overnight cultures were diluted 50-fold and 12 μL of overnight culture were transferred to day growth plates containing 588 μL/well of LB media containing antiobiotics. Overnight growth plates were sealed with new Breathe-Easier Sealing Membranes. Cultures were incubated at 30° C. and 800 rpm for 2.5 hr. Frozen 12 mM IPTG (Sigma) vials were removed from −20° C. and placed in a hood to thaw.
4. OD600 Plate Read of Overnight, Induction, and Harvest. 150 μL 1×PBS were dispensed into 96 well Costar Read Plates (#9017). 50 μL of culture samples were transferred to Read Plates. The OD600 reading was recorded using a Spectramax Plate Reader (Molecular Devices).
5. Induction. Electronic multi-channel pipettors were prepared to dispense 4×20 μL/well of IPTG (if 4× replicates). The multi-dispense option in the electronic pipettor was adjusted if more replicates was necessary. Thawed 12 mM IPTG was poured into 50 mL or 100 mL sterile reservoirs. 20 μL/well of IPTG into each 600 μL/well culture. Overnight growth plates were resealed. Cultures were incubated at 30° C. and 800 rpm for 4 hr. OD600 readings of plates were recorded according instructions above.
6. Harvest. 400 μL of induced culture were transferred to 800 μL Grenier storage plates. Plates were centrifuged at 3300 rpm for 20 min at 2° to 8° C. in a low speed benchtop centrifuge. Supernatants were discarded, pellets should stay in the conical bottom well. Residual supernatants were slapped out onto a paper towel on the benchtop. Plates were sealed with an aluminum foil membrane (Beckman-Coulter). Plates were covered with a plastic plate lid if available. Storage plates were labeled accordingly and stored frozen at −80° C.
Plates containing induced cell pellets were removed from the −80° C. freezer and allowed to thaw on the benchtop for 30 minutes prior to lysis. 200 μl of lysis buffer (50 mM Tris pH 8, 25 mM MgCl2, 74 μg/ml DNase I, 250 U/ml lysozyme, 0.1% Tween 20, 0.5 mM PMSF) was added to each pellet, and plates were incubated on an Eppendorf Thermomixer at 25° C. for 30 minutes at 1200 rpm. After lysis, plates were centrifuged at 3450 rpm for 15 minutes at 4° C. Supernatants were then removed and diluted 10-fold prior to DMAPP assay. 80 μl of the diluted supernatant was added to 20 μl of the DMAPP working stock (20 mM DMAPP in 0.1 M Phosphate Buffer pH 8.2, DMAPP triammonium salt, Cayman chemicals) in a Zinsser glass block. Blocks were then sealed with aluminum sealing membranes, and incubated in Thermomixers at 25° C. for 30 minutes at 450 rpm. Reactions were stopped by incubating blocks on Thermomixers at 70° C. for 12 minutes at 450 rpm. GC-MS was then used for headspace measurements to calculate the amount of isoprene produced by each lysates.
Headspace Assay. […]

[2] = Small scale expression and yield of purified 6xHis-tagged IspS variants; details: BL21(λDE3)pLysS, 100 mL cultures
Method: N-terminally 6×His-tagged wild type IspS, IspS-L494P, and IspS-T536F were expressed and purified from strains MD09-167, DW399, and DW363, respectively. The growth procedure is suitable for histidine tagged enzymes expressed in BL21(λDE3)pLysS cells. A 3 ml of overnight culture was prepared for each 100 mL of planned growth. The appropriate antibiotics ([…] kanamycin, […] chloramphenicol) were added to 3 ml of LB medium in a 10 ml glass tube and was inoculated with 1 colony from a fresh plate of cells or directly from glycerol frozen cell stock. Cultures were grown at 30° C. overnight with shaking at ˜220 rpm. Day cultures were prepared in 100 mL of LB medium with appropriate antibiotics for each culture. Each 100 mL day culture was inoculated with 50 μl of overnight culture and grown at 37° C. with shaking at ˜220 rpm until the OD600 reached ˜0.4-0.6. Day cultures were then induced with 400 μM IPTG and allowed to continue growing at 30° C. with shaking at 220 rpm for ˜5-6 hours. […] Following Harvest, cells were used directly or stored at −80° C. until ready to process. […]
To buffer exchange the protein into a buffer suitable for protein assays and storage, a PD-10 column (GE Healthcare) was equilibrated with 25 mL PD-10 buffer (50 mM HEPES, 0.05 M NaCl, pH 7.4). […] The eluate was then analyzed by absorbance at 280 nm and SDS-PAGE gel and the samples were stored at −80° C.

Molecule	isoprene synthase activity of variants relative to parent, in words [1]	performance index [1]	expression level (yield of purified protein) compared to wild type, in words [2]
B1	improved activity; also recorded: high performing	2.64	expressed at higher levels than the wild type protein
B2	improved isoprene synthase activity; also recorded: high performing	3.60	expressed at higher levels than the wild type protein
